We go through 14 molecules from patent US20090291081A1 (AbbVie / Abbott, published 2009).

Sequences and labels used below:
B1: ABT1-95-146 (other)
VL: DIQMTQSPSSLSASVGDRVTITCRASQNIVRNLRWYQQKPGKAPKLLIYSSSYLEPGVPSRFSGSGSGTDFTLTISSLQPEDFATYHCQQGYRWPVTFGQGTKVEIKR
notes: VK dAb
B2: ABT1-95-152 (other)
VL: DIQMTQSPSSLSASVGDRVTITCRAGQPIPRNLRWYQQKPGKAPKLLIYSSSYLEPGVPSRFSGSGSGTDFTLTISSLQPEDFATYHCQQGYRWPVTFGQGTKVEIKR
notes: VK dAb
B3: ABT1-95-153 (other)
VL: DIQMTQSPSSLSASVGDRVTITCRASQPIIRNLRWYQQKPGKAPKLLIYSSSYLEPGVPSRFSGSGSGTGFTLTISSLQPEDFATYHCQQGYRWPVTFGQGTKVEIKR
notes: VK dAb
B4: ABT1-131 (other)
VL: DIQMTQSPSSLSASVGDRVTITCRASQRINGNLRWYQQKPGKAPKLLIYSVSQLQSGVPSRFSGSGSGTDFTLTISSLQPEDFATYYCQQGYDWPPTFGQGTKVETKR
notes: VK dAb
B5: ABT1-95-150 (other)
VL: DIQMTQSPSSLSASVGDRVTITCRASQHIVRNLRWYQQKPGKAPKLLIYSSSYLEPGVPSRFSGSGSGTDFTLTISSLQPEDFATYHCQQGYRWPVTFGQGTKVEIKR
notes: VK dAb
B6: ABT1-95-155 (other)
VL: DIQMTQSPSSLSASVGDRVTITCRASQPIVRNLRWYQQKPGKAPKLLITSSSYLEPGVPSRFSGSGSGTDFTLTISSLQPEDSATYHCQQGYRWPVTFGQGTKVEIKR
notes: VK dAb
B7: ABT1-95-159 (other)
VL: DIQMTQSPSSLSASVGDRVTITCRASQPIARNLRWYQQKPGKAPKLLIYSSSYLEPGVPSRFSGSGSGTDFTLTISSLQPEDFATYHCQQVYRWPVTFGQGTKVEIKR
notes: VK dAb
B8: ABT1-95-156 (other)
VL: DIQMTQSPSSLSASVGDRVTITCRASQPIVRNLRWYQQKPGKAPKLLIASSSYLEPGVPSRFSGSGSGTDFTLTISSLQPEDFATYHCLQGYRWPVTFGQGTKVEIKR
notes: VK dAb
B9: ABT1-141-10 (other)
VL: DIQMTQSPSSLSASVGDRVTITCRASQWIQKQLAWYQQKPGKAPKLLIYSSSYLQSGVPSRFSGSGSGTDFTLTISSLQPEDFATYYCQQSLRVPFTFGQGTKVEIKR
notes: VK dAb
B10: ABT1-95-151 (other)
VL: DIQMTQSPSSLSASVGDRVTITCRAGQPIVRNLRWYQQKPGKAPKLLIYSSSYLEPGVPSRFSGSGSGTDFTLTISSLQPEDFATYHCQQGYRWPVTFDQGTKVEIKR
notes: VK dAb
B11: ABT1-95-158 (other)
VL: DIQMTQSPSSLSASVGDRVTITCRASQPIVRNLRWYQQKPGKAPKLLIFSSSYLEPGVPSRFSGSGSGTDFTLTISSLQPEDFATYHCQQGYRWPVTFGQGTKVEIKR
notes: VK dAb
B12: ABT1-95-154 (other)
VL: DIQMTQSPSSLSASVGDRVTITCRASQPIVRNLRWYQQKPGKAPKLLISSSSYLEPGVPSRFSGSGSGTDFTLTISSLQPEDFATYHCQQGYRWPVTFGQGTKVEIKR
notes: VK dAb
B13: ABT1-95-157 (other)
VL: DIQMTQSPSSLSASVGDRVTITCRASQPIVRNLRWYQQKPGKAPKLLITSSSYLEPGVPSRFSGSGSGADFTLTISSLQPEDFATYHCQQGYRWPVTFGQGTKVEIKR
notes: VK dAb
B14: ABT1-95-147 (other)
VL: DIQMTQSPSSLSASVGDRVTITCWASQGIVRNLRWYQQKPGKAPKLLIYSSSYLEPGVPSRFSGSGSGTDFTLTISSLQPEDFATYHCQQGYRWPVTFGQGTKVEIKR
notes: VK dAb

The assay deals with T1, human IL-1α (human, UniProt P01583 113-271).
T1 construct: also called IL-1alpha; hIL-1α
T1 sequence (looked up): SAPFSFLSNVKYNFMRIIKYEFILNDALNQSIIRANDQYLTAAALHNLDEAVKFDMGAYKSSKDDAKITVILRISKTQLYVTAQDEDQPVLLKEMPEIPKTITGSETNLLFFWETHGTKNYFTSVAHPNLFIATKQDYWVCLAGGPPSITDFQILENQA
Briefly: Table 62 IC50; RBA presumed.
As for B1, the IC50 was 0.8 nM.
The value for B2 was 0.8 nM; that for B3 was 0.5 nM; that for B4 was 80 nM.
The value for B5 was 0.2 nM; that for B6 was 10 nM.
B7 displayed a concentration for half-maximal inhibition (IC50) of 0.1 nM.
The value for B8 was 10 nM.
In the case of B9 it was 30 nM; in that of B10, 0.2 nM; in that of B11, 0.5 nM.
The value for B12 was over 10 nM; that for B13 was 10 nM.
Take B14: the IC50 turned out to be 0.2 nM.
